Assay results from patent publication US7326418B2, “Identification of novel factors that block programmed cell death or apoptosis by targeting JNK” (University of Chicago, priority 2001, dated 2008).
Ends that are not written are not given here.

Experiments:
[1] = target: T1, GST-MKK7 (Homo sapiens, UniProt O14733, Q133P/Q94H); assay: GST pull-down, GST-MKK7-coated beads with in vitro-translated Gadd45β products; assay type: binding
T1 construct: made in house; host or cells: E. coli BL21
T1 sequence (O14733 1-401 Q94H/Q133P limits assumed): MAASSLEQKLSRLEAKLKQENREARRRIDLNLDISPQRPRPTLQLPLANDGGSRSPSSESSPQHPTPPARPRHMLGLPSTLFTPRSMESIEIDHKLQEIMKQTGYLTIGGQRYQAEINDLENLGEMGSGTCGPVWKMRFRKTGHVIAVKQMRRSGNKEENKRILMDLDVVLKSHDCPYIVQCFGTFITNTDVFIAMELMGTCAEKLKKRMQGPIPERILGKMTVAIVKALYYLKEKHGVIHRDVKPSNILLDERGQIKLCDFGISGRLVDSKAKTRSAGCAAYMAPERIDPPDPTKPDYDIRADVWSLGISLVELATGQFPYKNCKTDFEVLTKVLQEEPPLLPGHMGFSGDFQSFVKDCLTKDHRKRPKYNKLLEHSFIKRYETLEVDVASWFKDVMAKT
Method: GST pull-down assays were performed using GST- or GST-MKK7-coated beads and in vitro-translated, Gadd45β products corresponding to the polypeptidic fragments indicated in FIG. 36A.
To generate Gadd45β polypeptides, in vitro reactions were primed with pBS-GFP-Gadd450 plasmids, encoding green fluorescent protein (GFP) directly fused to FL or truncated Gadd45β. To obtain these plasmids, pBS-Gadd45β(FL), pBS-Gadd45β (41-160), pBS-Gadd45 (60-160), pBS-Gadd45β (69-160), pBS-Gadd45β (87-160), and pBS-Gadd45β (113-160)—encoding the corresponding amino acid residues of murine Gadd45β were generated—by cloning appropriate gadd45β cDNA fragments into the XhoI and HindIII sites of pBS SK−. These plasmids, encoding either FL or truncated Gadd45β, were then opened with KpnI and XhoI, and the excised DNA fragments were replaced with the KpnI-BsrGI fragment of pEGFP-N1 (Clontech; containing the GFP-coding sequence) directly joined to the following oligonucleotide linker: 5′-[…]-3′ (SEQ ID NO: 48). These constructs were designated as pBS-GFP-Gadd45β. Gadd45β C-terminal deletions were obtained as described for the JNKK2 deletions by using pBS-GFP-Gadd45β(FL) that had been digested with the NgoMI, SphI, or EcoRV restriction enzymes to direct protein synthesis in vitro. These plasmids encoded the 1-134, 1-95, and 1-68 amino acid fragments of Gadd45β, respectively. […]

[2] = tested on: gadd45β−/− MEFs; assay: Apoptosis assay with TAT peptides, Gadd45β null MEFs; assay type: cell-based, mouse; conditions: HIV-TAT-fused peptides; MEFs at passage 4
Source text: (§1) A-B, Apoptosis assays showing that peptide 1 effectively promotes killing by TNFα in IκBαM-Gadd45β and Neo 3DO clones, respectively. C-D, Apoptosis assays showing that both peptide 1 and peptide 2 can facilitate TNFα-induced cytotoxicity in wild-type MEFs, and that only peptide 2 promotes this killing in Gadd45β null MEFs, respectively. (C-D), MEFs were from twin embryos and were used at passage (p)4. A-D, Values (expressed as arbitrary units) were obtained by subtracting background values with untreated cells from values with TNFα-treated cells, and represent the mean (+/−standard deviation) of three experiments.
(§2) Treatments were as follows: murine TNFα (Peprotech), 1,000 U/ml, 10 U/ml, or 1,000 U/ml plus 0.3 μg/ml cycloheximide (CHX; FIG. 33); human TNFα (Peprotech), 2,000 U/ml; PMA plus ionomycin (Sigma), 100 ng/ml and 1 μM, respectively. Treatments with H2O2 and sorbitol were as described previously. In FIG. 33, pre-treatment with HIV-TAT peptides (5 μM) or DMSO was for 30 minutes and incubation with TNFα was for an additional 4 and 3.5 hours, respectively. In FIG. 33, peptides were used at 10 μM and incubation with TNFα was for 4 hours. Apoptosis was measured by using the Cell Death Detection ELISA PLUS kit (Roche). […]

[3] = target: T2, GST-Gadd45β (Mus musculus, UniProt P22339); assay: GST pull-down of in vitro translated MKK7 peptides with GST-Gadd45β; assay type: binding, murine; conditions: fused to eGFP
T2 construct: Murine and human, full-length Gadd45J3 proteins were purified from E. coli as GST-Gadd45β and His6-tagged Gadd45β; made in house; host or cells: E. coli BL21 (pGEX-3X)
T2 sequence (P22339 1-160): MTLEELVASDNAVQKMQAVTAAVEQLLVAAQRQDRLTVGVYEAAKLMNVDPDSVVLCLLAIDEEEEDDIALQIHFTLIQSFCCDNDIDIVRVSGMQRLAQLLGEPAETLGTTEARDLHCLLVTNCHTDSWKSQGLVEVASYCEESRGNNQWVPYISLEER

[4] = tested on: wild-type MEFs; assay: Apoptosis assay with TAT peptides, wild-type MEFs; assay type: cell-based, mouse; conditions: HIV-TAT-fused peptides; MEFs at passage 4
Source text: as §1, §2

[5] = tested on: Neo 3DO cells (NF-κB-proficient); assay: Apoptosis assay (Cell Death Detection ELISA) with TAT peptides, Neo 3DO clones; assay type: cell-based
Method: (§3) FLAG-MKK7 was immunoprecipitated from TNFα-treated (10 minutes) 293 cells. b, c, are apoptosis assays showing that peptide 1 promotes killing by TNFα in IκBαM-Gadd45β and Neo clones, respectively. Values (expressed as arbitrary units) were obtained by subtracting background values with untreated cells from values with TNFα-treated cells, and represent the mean (+/−standard deviation) of three experiments.
A-B, Apoptosis assays showing that peptide 1 effectively promotes killing by TNFα in IκBαM-Gadd45β and Neo 3DO clones, respectively. […] A-D, Values (expressed as arbitrary units) were obtained by subtracting background values with untreated cells from values with TNFα-treated cells, and represent the mean (+/−standard deviation) of three experiments.
Treatments were as follows: murine TNFα (Peprotech), 1,000 U/ml (FIG. 27) or 10 U/ml (FIG. 30); human TNFα (Peprotech), 2,000 U/ml; PMA plus ionomycin (Sigma), 100 ng/ml and 1 μM, respectively. […] Apoptosis was measured by using the Cell Death Detection ELISA^PLUS kit (Roche).
Treatments were as follows: murine TNFα (Peprotech), 1,000 U/ml, 10 U/ml, or 1,000 U/ml plus 0.3 μg/ml cycloheximide (CHX; FIG. 33); human TNFα (Peprotech), 2,000 U/ml; PMA plus ionomycin (Sigma), 100 ng/ml and 1 μM, respectively. […] Apoptosis was measured by using the Cell Death Detection ELISA PLUS kit (Roche). […]

[6] = target: T3, MKK7 inhibition by Gadd45β (Mus musculus, UniProt P22339); assay: MKK7 kinase assay: peptide interference with MKK7 inhibition by Gadd45β; assay type: biochemical; conditions: GST-Gadd45β pre-incubated with peptides 20 min; FLAG-MKK7 from TNFα-treated 293 cells
T3 construct: Murine and human, full-length Gadd45J3 proteins were purified from E. coli as GST-Gadd45β and His6-tagged Gadd45β; made in house; host or cells: GST-Gadd45β from E. coli; FLAG-MKK7 immunoprecipitated from transfected, TNFα-treated 293 cells
T3 sequence (P22339 1-160): T2 sequence (P22339 1-160)
Method: as §3
To define interaction regions and determine whether they are sufficient for binding, Gadd45β association with overlapping peptides spanning these regions (FIG. 29e) was determined. […] This is reminiscent of the mechanism by which p27^KIP1 inhibits cyclin-dependent kinase (CDK)2. A question explored was whether MKK7, Gadd45β-binding peptides interfered with the Gadd45β ability to suppress kinase activity.
GST precipitations with in vitro-translated proteins or purified proteins (FIG. 26-30), and kinase assays were performed. […] MKK7 phosphorylation was monitored by performing immunoprecipitations with anti-P-MKK7 antibodies (developed at Cell Signaling) followed by Western blots with anti-total MKK7 antibodies. […]

[7] = tested on: IκBαM-Gadd45β 3DO cells; assay: Apoptosis assay (Cell Death Detection ELISA) with TAT peptides, IκBαM-Gadd45β 3DO clones; conditions: for TNFα-induced killing of IκBαM-Gadd45β cells: HIV-TAT-fused peptides 5 μM, 30 min pre-treatment, then TNFα
Method: Treatments were as follows: murine TNFα (Peprotech), 1,000 U/ml (FIG. 27) or 10 U/ml (FIG. 30); human TNFα (Peprotech), 2,000 U/ml; PMA plus ionomycin (Sigma), 100 ng/ml and 1 μM, respectively. In FIG. 30, pre-treatment with HIV-TAT peptides (5 μM) or DMSO was for 30 minutes and incubation with TNFα was for an additional 7 and 3.5 hours, respectively. Apoptosis was measured by using the Cell Death Detection ELISA^PLUS kit (Roche).
Treatments were as follows: murine TNFα (Peprotech), 1,000 U/ml, 10 U/ml, or 1,000 U/ml plus 0.3 μg/ml cycloheximide (CHX; FIG. 33); human TNFα (Peprotech), 2,000 U/ml; PMA plus ionomycin (Sigma), 100 ng/ml and 1 μM, respectively. […] In FIG. 33, pre-treatment with HIV-TAT peptides (5 μM) or DMSO was for 30 minutes and incubation with TNFα was for an additional 4 and 3.5 hours, respectively. In FIG. 33, peptides were used at 10 μM and incubation with TNFα was for 4 hours. Apoptosis was measured by using the Cell Death Detection ELISA PLUS kit (Roche).

Substance	binding to MKK7 in vitro [1]	TNFα-induced killing in gadd45β−/− MEFs [2]	binding to GST-Gadd45β [3]	cytokine (TNFα)-induced toxicity in wild-type fibroblasts [4]	toxicity in untreated Neo cells ([5]; HIV-TAT-fused peptide, no TNFα)	TNFα-induced killing of NF-κB-proficient (Neo) cells ([5]; HIV-TAT-fused peptides 5 μM, 30 min pre-treatment, then TNFα)	prevention of MKK7 inhibition by Gadd45β [6]	basal toxicity in IκBαM-Gadd45β cells ([7]; HIV-TAT-fused peptide, no TNFα)	TNFα-induced killing of IκBαM-Gadd45β cells [7]
IALQIHFTLIQSFCCDND [69-86 amino acid region of Gadd45β, positions 69-86 of Gadd45β]	sufficient to bind to MKK7	–	–	–	–	–	–	–	–
NH2-TGHVIAVKQMRRSGNKEENKRILMD-COOH (H-TGHVIAVKQMRRSGNKEENKRILMD-OH; listed as Homo sapiens) [peptide 2, aa 142-166 of MKK7/JNKK2]	–	retained (and, in fact, enhanced)	does not bind	enhanced	–	–	–	–	–
peptide 1: MKK7 peptide 132-156, Gadd45β-interacting, spans ATP-binding site K149; fused to cell-permeable HIV-TAT peptide for cell assays (GPVWKMRFRKTGHVIAVKQMRRSGN; also: fused to HIV-TAT peptide for cell assays; listed as Homo sapiens)	–	completely insensitive	sufficient to recapitulate this binding	enhanced	minimal toxicity	promoted TNFα-induced killing	prevented MKK7 inhibition by Gadd45β	marginal basal toxicity	markedly increased susceptibility
peptide 7: MKK7 peptide 220-234, Gadd45β-interacting; fused to HIV-TAT peptide for cell assays (GKMTVAIVKALYYLK; also: fused to HIV-TAT peptide for cell assays; listed as Homo sapiens)	–	–	sufficient to recapitulate this binding	–	–	–	did not	–	no effect
